Reference: the DeepSol protein solubility set

test: soluble on expression in E. coli; label from the status in PepcDB or PDB records

Sequence | soluble on expression in E. coli
MSVITPTSSIAANDHRAQFLGLLDTSLSQNSLIKLVLAKYVGSEADLQRIIIKPLTVKEQPCLSFVYRYKTRDITKNFPLAEAVAVIASLIPESFKNAHLLSLSDEVQLEYSKKGKTTLFKSKAQQEREAPSAGHDREKKRYLELSRPFLADLGVTNRQHELIPAMSRKWKQINKFIEVFSHALSSSSLKLDQPIKVADFGSGKGYLTFAIHDYLCNTLQAQGQVTGVELREDMVTLCNNAAAGLEHPGLTFQHGDVRSVAPRALDVMIALHACDIATDYAIHMGIRSGASIIMCSPCCHKQIRLQIQSPSLLKPMLQYGLHMGQQAEMVTDSLRALLLDACGYETKVFEFISLEHTNKNKMILAVKRAEPANPAQLLVRIQELKAFYGISEQCLETLLQADGFLG | not soluble
MAADPASAPVLLHPRRAMVLAAGLGLRMRPLTETMPKPLVAIHDKPLIDWALDHLATAGVEEAVVNLHHLPEMLEAHLQGRATPRIHFSDETGQRLETGGGVRKALPHLGDDPFYVLNSDVLWLNGTIPALDRLAAAWDPETMDALLLLHPLAAAHGYEGLGDFDLDPLGRPTRRAEMHMAPFIFTGVQILHPRLFDDAPEGPFSLNVLYDRALSEDRLAAIVHDGEWYHVGTPQALVHTETILGQHSSMSDQLEHHHHHH | not soluble
MAHHHHHHMMSTASKILAILREAMRKRSLSALIIPSSDPHNSEYVKDEYKCRAYITNFKGSAGTCLITMNEAYLWTDGRYWLEASQSLYPEWTLMKDGHPDVPRLENWIQLNLGSDVLVGMNNHLSTVAEWERRRKMFNLVSVPEMVQPLMPLVENPVSKLYARPEEFCGMRCGEKAAALMEEMERQKCDALVLSALDEVAWLTNLRGSDVPFNPVFYAYGVVRCCSPPKVHLFVDAVMSEEQGPSLELHPYTALESYLRTIPAGTTFLVDEYQTSQWLFTLLESLGMRIKGVACGPAQKLKAVKNAVEIEGFRRCHVRDGVALTRYLAWLHDTVAVKGDTSVTEYSAAQRLEDFRREGEHFVQLSFSTISSVGPNAAIVHYVAPREGSATIVPDQLYLVDSGAQYLDGTTDVTRTVCFREPGDKEREAYTLVLKGNLALHSAVWPTGTSGHSLDVLARAALWKCGLNYAHGTGHGVGSFLNVHEGPQGIGLRPTPTEATLAAGMVMSNEPGYYKDGEFGIRIENLELVVDVATKHSKKGFLTFDTLTMVPLCRELIDVSALTEAERLQVNAYQQTVRETLLPHLRRCNDSCAIAYLEHHTATL | soluble
MSLAKLNVEVFADGADIEQMKAAYKNKEVDGFTTNPSLMAKAGVTDYKSFAEEAVKEIPDASISFEVFADDLETMEKEAEILKQYGDNVFVKIPVVNTKGESTIPLIKKLSADNVRLNVTAVYTIEQVKEITEAVTEGVPTYISVFAGRIADTGVDPLPLMKESVDVAHSKEGVKLLWASCRELFNVIQADEIGADIITCPADVVKKVNTNLGRDINELSVDTVKGFAKDIQSSGLSEGHHHHHH | soluble
MLNLSGLSLSCEYQPFVCPHTKHIHGYEALARFYLGQGQAIAPNLVFEQLHENSNALAAVEFQAKTFQLKHAPARQSLFVNVDPHAANGVHTQKLLDLLSSHPQLTVEIIENTCISDAELANQLFHQFKTANLNVALDDIGAPHSMLSVDLMMNVDYLKFDRHWLNLVAEPHGIALLSALIEFGKRTGKQCILEGIETEAQLQLARELNVDLVQGFLFKPWFIRPEQSERLIC | soluble
MNRYITRGIANNLPNILQHQLWQLVSEREQEQTKDNTLVDYFHIFQFNTHRNQLYIKHKQERPAYVKTQKANINQPININKVYIIREDDVDLSYYIMLLPNEYLEHHHHHH | soluble
MWPPNAENNHCNYSYHEHAELNPHDHYHHHHYPHSSVHHTECYQTLSCPSDLPVETSYYNSVPPSYQDLGQTDLSPQFWCAEVDCVHERCSTKEIPHEQSKIFEEISKECDHIMNSAGDCEKCQVEHENGAQEAIPINDLVDIVMQTVDNLKKEGSSNDETKLLSRKRQQNKVAAARYRDKQKAKWQDLLDQLEAEEDRNQRLKLQAGHLEKEVAEMRQAFLAKLAKK | not soluble
MAQVAIFKEIFDQVRKDLNCELFYSELKRHNVSHYIYYLATDNIHIVLENDNTVLIKGLKKVVNVKFSRNTHLIETSYDRLKSREITFQQYRENLAKAGVFRWITNIHEHKRYYYTFDNSLLFTESIQNTTQIFPR | not soluble
MSAFFLNMEKSIITQKIIAKAFKDLMQSNAYHQISVSDIMQTAKIRRQTFYNYFQNQEELLSWIFENDFAELINDNSDYYGWQNELLLLLRYLDENQIFYQKIFVIDKNFEHFFLIQWENLLDKVIFDQEKKSDYHWSDLEKSFICRYNAAAICAITRESIIRGNSLEKLYSQIVNLLLAQIKIFESLEHHHHHH | soluble
MWDVIVVGGGPSGLSAALFLARAGLKVLVLDGGRSKVKGVSRVPNYPGLLDEPSGEELLRRLEAHARRYGAEVRPGVVKGVRDMGGVFEVETEEGVEKAERLLLCTHKDPTLPSLLGLTRRGAYIDTDEGGRTSYPRVYAAGVARGKVPGHAIISAGDGAYVAVHLVSDLRGEPYKDHAL | soluble
MSLKEVDLTQEQMKDLNLTYDWYRSYDNAKLNEFLNFVLLNNSDINIARKTLLSALARADLIDYDLYPTLSGNLGFGADKDLNSGKQSKNFNNSLNLSYELDIYGKLRDSASASEFSAKASAYDLENLKISMINTALNDVFELAYFNDVDKLLRAYLSNLEQMKELYNYKYKLGKIEELDLLNIEQSLLRAKQNLLSNDQNRNLLIKNLQDLLARQEGFAYIEYFKTLSLNDFKTLSPDFNIPLKALAYRADVRSKLNSLKSAFKDYSSMQKSILPSISLGGALSGSDKKIDDSFKFEILSGNVKISLPFLDYGRVKQNIKISQFAYEQLLISYEQVLQSAMNEFALNYKDYQSDTLLLQNLQNINIKQELITKAYYEKYILGKSELKDYLDANNTLNSTQQEFLRARFNLLKTINSYYQITALSFNNENLEFPKEGHHHHHH | soluble
MSTIDFRPYGGFIFDMDGTLIDTMPAHLAAWQATADRFDFPFCQEWLHSLGGMPSFKIVAELNRHYGLSLDPQTVSKFKMETFAAMELQGDVIQCTGIVLEEYLGQKKIAVGTGSQRESAMRLLSHAGLIDRLDAVVTASDVENHKPCPDTFLLAADRLGIDAQNCLVFEDTELGKRAAHSAGMDCVMVEGNNLVFYPKR | not soluble
MSLSRYPQLIQEQILKCKESWDSNSYKTSLRSFVYNKVNETDAILYTKPTNVSQEEWDKAIENKPSSDLIPIQVFGFEGLNNRNQIQVENVAQARVILNQILDKTKQLQQSHSFETSARIMKVQARNAQIEKRILKLGTQLAILKNRRLPLTISEEKMWGQFQELLKSSNDPAGLGKTNELWARLAVLRERAKTISEQLDSKLVIIGENGGQTGKPSASGDNNRVSDEVYDRIDKIAEILKNQQSGIAYLNDVLEKDNKALDSVVELKEGHHHHHH | soluble
MGSDKIHHHHHHMRILYYDCFCGISGDMNLAALVDLGVPKKYLIDELLKLNLGSEYEIKIEKGQKLGITGTRVDVILKDEHHNKHELEEVLHNHEHKHNHHEIKNDEPAHSHEHHHRSLRDIEEIINSSTLNDKVKKLSLNIFMKVAEAEAKVHGRELYEVHFHEVGAVDSIVDIVGAAICIDYLKVDKILASRVQVGGGFVRCAHGIMPVPAPATVEILKNIPINTGIVQFETTTPTGAAILAANVKEFTQKLDFIIKKTAYGIGHRDLEIPNVLRVYLGEEESFQDIENQYILETNIDDMNPEIYGYVEEKLFKVGALDVFKTPICMKKGRPGIKLSVLTNEKSEREVLDVIFEETTSIGVRRYKVEKIMLKREFSKVKTEFGDITVKKAYYKGELVKYKPEYEECKDIAREKNVSIHKVYKAVYKQDLK | not soluble
TATNHQGLPAVDSEILEMPPEKADGVVEGIDVNGPKAQLMLRYPDGKREQITLPEQAKLLALVKHVQSKGYPNERFELLTNFPRRKLSHLDYDITLQEAGLCPQETVFVQE | soluble
MGTWPLTVTKEMEKRKELFRRDPNRALIGAGGYKAADEAIVHDAAIALALGKNVLLKGPTGSGKTRLAETLSALFGQPMHSINCSVDLDAEALLGFKTIVHKNSQAVIEYVPGPVIQAMTKGHLLYIDEINMAKPETLPILNSVLDYRRRLTNPLTGDIVQAKQTFGVIAAINEGYIGTVPLNEALKNRFVVINVPYVQGETLKSVLLAQTTLTDETLIDRFVALSADLLAQVRNGQIAEEAASVRALLDACDLAAYMPPLRAIERSIVDKLDDERERAAVRNIAETWFDE | not soluble
TANKRHYLEKVSHQGIISALAFDQRGALKQMMAAHQEGEATVTQIETLKVLVSEELTPYASSILLDPEYGLLATKVRANQTGLLLAYEKTGYDATTTSRLPDCLVEWSVKRLKAAGADAIKFLLYYDVDGDEQINLQKQAYIERIGSECTAEDIPFFLELLSYDERISDNNSAAYAKLKPHKVNGAMSVFSDKRFGVDVLKVEVPVNMAYVEGFTEGEVHYSQAEAIKAFQDQEAASHLPYIYLSAGVSAKLFQETLYFAAAAGAQFSGVLCGRATWAGSVPVYITKGEDEARKWLCTEGFQNIDELNRVLEETASPWTEKI | not soluble
MLHTTQLYQHVPETRWPIVYSPRYNITFMGLEKLHPFDAGKWGKVINFLKEEKLLSDSMLVEAREASEEDLLVVHTRRYLNELKWSFAVATITEIPPVIFLPNFLVQRKVLRPLRTQTGGTIMAGKLAVERGWAINVGGGFHHCSSDRGGGFCAYADITLAIKFLFERVEGISRATIIDLDAHQGNGHERDFMDDKRVYIMDVYNRHIYPGDRFAKQAIRRKVELEWGTEDDEYLDKVERNIKKSLQEHLPDVVVYNAGTDILEGDRLGGLSISPAGIVKRDELVFRMVRGRRVPILMVTSGGYQKRTARIIADSILNLFGLGLIGPESPSVSAQNSDTPLLPPAVP | soluble
GLMALLMVFAVSIGGLTQIVPLFFQDVTNKPVEGMKPYTALQLEGRDVYIREGCVGCHSQMIRPFRAETERYGHYSVAGESVWDHPFLWGSKRTGPDLARVGGRYSDDWHRAHLYNPRNVVPESKMPSYPWLVAQPVDNSHTDVKMRTLRTLGVPYTDDDIAGAREAVKGKTEMDALVAYLQVLGT | not soluble
EVQLVQSGAEVKKPGSSVKVSCKASGGTFSNYAINWVRQAPGQGLEWMGGIIPIFNIAHYAQRFQGRVSITADESTSTAYMELSSLRSEDTAVFYCASPYPNDYNDYAPEEGMSWYFDLWGRGTLVTVSPASTKGPSVFPLAPSSKSTSGGTAALGCLVKDYFPEPVTVSWNSGALTSGVHTFPAVLQSSGLYSLSSVVTVPSSSLGTQTYICNVNHKPSNTKVDKKVEPK | soluble
MSLNKKIILLADDDRDDIEMFCEALEMVNENVICECAENGDQAWRMLNDNNEKPQLIFLDINMPIMNGWECLKLIKKDENYQDIPVIMISTSSHKNDMETASKLGALGYFVKPNDFNDLKSMLKIITSNEGTDEGHHHHHH | soluble
MGSDKIHHHHHHMREEAPSRAQRVIDNNDILFQCVRPYQKNNYIHRILNTSNQQWVASTGYAQIRTTELPNYIYHLLNTDEFNRKVMVRCTGSSYPAINSEDLATIHLYYTPDKKEQLKISRLLDLLDKRIATQNKIIEKLQSLIKGIAQHCIKESTSGNTYVKLGDICQITTGKLDANAQVDNGIYPFFTCAEQPFKIDSFAFDTEALLISGNGANLGYINYYKGKFNAYQRTVSIR | not soluble
RGSHMCDAFVGTWKLVSSENFDDYMKEVGVGFATRKVAGMAKPNMIISVNGDVITIKSESTFKNTEISFILGQEFDEVTADDRKVKSTITLDGGVLVHVQKWDGKSTTIKRKREDDKLVVECVMKGVTSTRVYERA | soluble
